From the DeepSol protein solubility set

Assay: soluble on expression in E. coli; label from the status in PepcDB or PDB records

Sequence | soluble on expression in E. coli
MGHHHHHHSHMSNLTPESSPELAKKSWFGNFISLEKEEQIFVVIKDKPLSSIKADIVHAFLSIPSLSHSVISQTSFRAEYKATGGPAVFQKPVKFQVDITYTEGGEAQKENGIYSVTFTLLSGPSRRFKRVVETIQAQLLSTHDPLRPSTCQTPLTVWK | not soluble
MGHHHHHHSHMSRPGHGGLMPVNGLGFPPQNVARVVVWEWLNEHSRWRPYTATVCHHIENVLKEDARGSVVLGQVDAQLVPYIIDLQSMHQFRQDTGTMRPVRRNFYDPSSAPGKGIVWEWENDGGAWTAYDMDICITIQNAYEKQHPWLDLSSLGFCYLIYFNSMSQMNRQTRRRRRLRRRLDLAYPLTVGSIPKSQSWPVGASSGQPCSCQQCLLVNSTRAASNAILASQRRKAPPAPPL | not soluble
MGHHHHHHSHMSYKPNLAAHMPAAALNAAGSVHSPSTSMATSSQYRQLLSDYGPPSLGYTQGTGNSQVPQSKYAELLAIIEELGKEIRPTYAGSKSAMERLKRGIIHARGLVRECLAETERNARS | soluble
MGHHHHHHSHMTDPLAPEGDNRVWYMDGYHNNRFVREYKSMVDFMNTDNFTSHRLPHPWSGTGQVVYNGSIYFNKFQSHIIIRFDLKTETILKTRSLDYAGYNNMYHYAWGGHSDIDLMVDESGLWAVYATNQNAGNIVVSRLDPVSLQTLQTWNTSYPKRSAGEAFIICGTLYVTNGYSGGTKVHYAYQTNASTYEYIDIPFQNKYSHISMLDYNPKDRALYAWNNGHQILYNVTLFHVIRSDEL | not soluble
MGHHHHHHSHMTKLPPIEQLLPHDKPMILVDRAMDIQQDTIHCQVDIAEHNPFFDSASQTVPAYVGIEFMAQSVAAWSGYHALMKEQAPPIGFLLGSRRYTSECDAFSRGQMLDVYAEKVMEDNGMAVFSARIELQGTVVATCQLNVYVPSEEKLQEMKIRSQQ | not soluble
MGHHHHHHSHMVAWKRQLILFGGFHESTRDYIYYNDVYAFNLDTFTWSKLSPSGTGPTPRSGCQMSVTPQGGIVVYGGYSKQRVKKDVDKGTRHSDMFLLKPEDGREDKWVWTRMNPSGVKPTPRSGFSVAMAPNHQTLFFGGVCDEEEEESLSGEFFNDLYFYDATRNRWFEGQLKKLRSGWRRRTRKRTVRRLRAPRVGSTTKTAERRAVRRTESPCQGRLASAVPTSAQDPAVLSEALGASVRPDAQERAEGGWPRPGCELSPMV | not soluble
MGHHHHHHSHMVDIDLPEPPKPTPPDQETEEEQRFRALFEQVAGEDMEVTAEELEYVLNAVLQKKKDIKFKKLSLISCKNIISLMDTSGNGKLEFDEFKVFWDKLKQWINLFLRFDADKSGTMSTYELRTALKAAGFQLSSHLLQLIVLRYADEELQLDFDDFLNCLVRLENASRVFQALSTKNKEFIHLNINEFIHLTMNI | soluble
MGHHHHHHSHMVTSITATANQMPANPPKTVFEFSTEINRTIEKDVMQAVVYSRKTGKQLPDLKKSVSLHLNKVIDNAKKQSDIELEANGVRNFVNYDNNNKPDGWVAEGRVYLKSKNFEALAKVLEQLDSEVAISDIYFSVSPEKAKTLENEMILDVLKQFKHKAEVVQAGLNAKNYVLTDVKLDTPNGNLDQFEVRSFAMMARSVRPASAKEELSLEPGKATLSARASGKVQFE | soluble
MGHHHHHHSHMYAFTLHPNAQHRRTRIGTSVDLSCLLCFRIGGFYALSPYPGLRLISLNMNFCSRENFWLLINSTDPAGQLQWLVGELQAAEDRGDKVRASSGNTVVLGDKQAPVELEHLWAQKFYFPGIPNKCSLGIQLMVTVESLHSVPLSLARAAWTPGCPDYHP | not soluble
MGHHHHHHSHQHLEVRDEVAEKCQKLFLDFLEEFQSSDGEIKYLQLAEELIRPERNTLVVSFVDLEQFNQQLSTTIQEEFYRVYPYLCRALKTFVKDRKEIPLAKDFYVAFQDLPTRHKIRELTSSRIGLLTRISGQVVRTHPVHPELVSGTFLCLDCQTVIRDVEQQFKYTQPNICRNPVCANRRRFLLDTNKSRFVDFQKVRIQETQAELPRGSIPRSLEVILRAEAVESAQAGDKCDFTGTLIVVPDVSKLSTPGARAETNSRVSGVDGYETEGIRGL | not soluble
MGHHHHHHSHRSQPVHILAVRRLQEEDQQFRTSSLPAIPNPFPELCGPGSPPVLTPGSLPPSQAAAKQDVKVFSEDGTSKVVEILADMTARDLCQLLVYKSHCVDDNSWTLVEHHPHLGLERCLEDHELVVQVESTMASESKFLFRKNYAKYEFF | not soluble
MGHHHHHHSNKIERIIARLQRRIAEGQPEEQYEAAQETRLVAARYSKQGNWAAAVDILASVSQTLLRSGQGGSGGDLAVLLVDTFRQAGQRVDGASRGKLLGCLRLFQPGEPVRKRFVKEMIDWSKKFGDYPAGDPELHHVVGTLYVEEGEFEAAEKHLVLGTKESPEVLARMEYEWYKQDESHTAPLYCARAVLPYLLVANVRAANTAYRIFTSALVEDNKGLTVQNIGSQSAELRIFPSLPLLNFISMLLLSVQKGSPDLFRQLKSKYEANLNELNGIWDTALELIAEMYFGIQRPRQSNPLLDMMGSLFGGGGGAPSKAALRRIDTPAAEGLD | soluble
MGIFDFLSGQFIDVIHWTDDTRDTMVWRFEREGHEIKYGAKLTVREGQSAVFVHEGQLADVFTPGLYMLETNNMPILTTLNHWDHGFRSPFKSEIYFVNTTRFNNLKWGTKNPIMLRDPEFGPTRIRAFGTYSVRVTDPARFLSEIVGTDGEFTMDEISFQIRNIIVQEFSRVIAASGIPVLDMAANTADLGKLIAAQVALPLTEYGLEMPEFYIENISLPPAVEAALDKRTSMGLAGDLGKFTQYSAAEAMTAAATNPAGGGMAAGLGAGMGMAMAQQMAQPGPWGAAPASRHAAPPPPPVEHVWHVAVDGQTSGPFSKAKMGRMAAEGEITRDTYVWTPGQDGWKRAEDVRELAQLFTILPPPPPPPGALEHHHHHH | soluble
MGIKGLSQVIADNAPSAIKVNEMKAFFGRTVAIDASMCLYQFLIAVRQDGSQLQSEDGETTSHLMGMLNRTVRMFENGVKPVYVFDGKPPDMKGGELEKRSERRAEAEKALTEAKEKGDVKEAEKFERRLVKVTKQQNDEAKRLLGLMGIPVVEAPCEAEAQCAHLVKAGKVFGTVTEDMDALTFGSTVLLRHFLAPVAKKIPIKEFNLSLALEEMKLSVEEFIDLCILLGCDYCGTIRGVGPKKAVELIRQHKNIETILENIDQNKYPPPEDWPYKRARELFLNPEVTKPEEVELTWKEADVEGVIQFLCGEKNFNEERIRNALAKLKTSRKSGTQGRIDSFFGNSTKVTCVTAATKRKAEEAEKAKKGAKKGGPPKKRAK | not soluble
MGISEIIRSHRKKENLTQEQVANYLNISTPAVNKWENGITYPDITLLAPLARILKIDVNTLLAFNEELTEKEVNKLGRSVGEIVEKEGYQKAFEKGSDLIKQYSSCDELILRISSILRLFLVTAKVEKKDIYEDKIIAWAEIVAASRNEKTADMAKIFLSAVYRDKKEYKKAKEILDKVPDMELGSDKKIQQLLLLESSGEFDKAYGACEEVLLYNAQESLGAMVLIIRMLLKENKFSEAEEYTQRAKKLVEVFDLGEYSKYTLELSLIKEKRDEEKAVELIRNMIDNADSMNNFMRSKLYKHRKIEVTNSLDKDRYKKIVRMSIIKDKALDFVKDDPRVKSLLK | not soluble
MGITDGVVVDLGGGTTGISILEKGKVIFVADEPTGGTHMTLVLAGSYGIDFETAEDIKTDKKKEKEVFVQITPVLQKMAAIVKKYIKDYKVKDVFLVGGACSFDGSESIFERELGLNIYKPYMPVLEHHHHHH | not soluble
MGKDLRGKELGVGLYQRKDKRYSARYTNQYGKRMEFYDFKLSVVKKWLNDARYEDEHGLSGTGEKVTVTEWFEKWIKLYKEGVVKDNTVKNYKSRFENNIKPAIGNLQLNKVKKIQLQTILNNMYEEGYAFGTMVLAQITIHALFDGAVQSEILAKNPANGLKCKQRDVKDSRVLTREEQKVFLEYSRGTMYYNAYALLLQTGLRPGEVGGLKWEDIDFDKRELHITRTLLQDKAKGGFYFGSPKNKKSIRTVPLTDTAIQLLKDQRICNFKLRQRSDNWQKNKEFDNLIFCTINGNPVGQSTFRMMMLRVITRINNDRRAEAEINNTTYVEFEPAHPHTLRHTFATRCIEDGMKPNVLQKILGHASITVTMDLYVHETHEEKHKEIRKLGNVEEIGVKLA | not soluble
MGKENLYVVLPSYNEEANIGKLINEWNVQFKDLEARGIKLEIIIVNDGSTDNTLAVAEAFSKHNDNVVVIDHGVNKGLGEGLNTGINYVLSQKQKGYMCLMDGDMTHEPKYIFSMLDKLQEEKLDCVIASRYRRGAKVEGLSLFRKFLSFGARVLYTIRLGIPNVRDYTCGYRLYKTSVLEKLHKVYGKRIVKETGFACMMELIVKVSKENFKIGEVPFVLKYQLKGGESKMKVGKTIKRSLLLLRVYK | soluble
MGKKQHQKDKLYLTTSEWKSIGGHKDDTGTRLQRAQFKRLPINHCSLSLLPFEDPVCARSGEIFDLTAIVPYLKKHGKNPCTGKPLVAKDLIHLKFDKGEDGKFRCPVTFRTFTDHSHILAIATSGNVYSHEAVQELNLKRNHLKDLLTDVPFTRADIIDLQDPNHLEKFNMEQFLHVKLDLKTSEEIKKEKDAMKDPKFYIRRMNNACKSVLDQLDKEYVPKKSSTETDETADEINAAHYSQGKVAAGFTSTVMAPVTSNKAAVLDNDTVRYSRVKKNAFVRLVTNFGPLNLELFAPKVPKACENFITHCSNGYYNNTKFHRLIKNFMLQGGDPTGTGHGGESIWDKPFSDEFISGFSHDARGVLSMANKGSNTNGSQFFITFRPCKYLDRKHTIFGRLVGGQDTLTTIEKLETEEGTDVPMVSVVIMRAEVFVDPFEEAEKEVQAERAEILKKTSKDAASLANKKAKETATKPEAVGTGVGKYMKSAAAVNKRQGKMEDVPLEAAKKTKFARAGLGDFSKW | not soluble
MGLFTTRQLLGYTEQKVKFRALFLELFFRRTVNFHTEEVMLDKITGKTPVAAYVSPVVEGKVLRHRGGETRVLRPGYVKPKHEFNYQQAVERLPGEDPAQLNGPAYRRLRIITDNLKQEEHAIVQVEEMQAVNAVLYGKYTMEGEQFETVEVDFGRSVGNNITQAGGTEWSAQDRDTFDPTHDLDAYCDFASGTINIAIMDGKVWRLLNGFKLFREKLDTRRGSNSQLETAVKDLGAVVSFKGYYGDLAIVVAKTSYVAEDGTEKRYLPDGTLVLGNTAAEGIRCYGAIQDAQALSEGVVASSRYPKHWLTVGDPAREFTMTQSAPLMVLPDPDEFVVVQVK | not soluble
MGLKLDLTWFDKSTEDFKGEEYSKDFGDDGSVMESLGVPFKDNVNNGCFDVIAEWVPLLQPYFNHQIDISDNEYFVSFDYRDGDW | soluble
MGLLLYRELVHKLKTKYKKIAGKGENQKDKTLPWHLETDQLTNRHPNHKVRIPYIDEVFDMLAKMTAKNQLTLPKSVTTAVGAGEYFEIEVRNGQIVLTPVRIQRADAVRAKLAELDLGERDIMDAVTWARQPVKGSATE | not soluble
MGLNVREGEIMAKNRSRRLRKKMHIDEFQELGFSVAWRFPEGTSEEQIDKIVDDFINEVIEPNKLAFDGSGYLAWEGLICMQEIGKCTEEHQAIVRKWLEECKLDEVRTSELFDVWWD | not soluble
MGLSCALTSGLSLRCFSNTPARLSCGAGILHCSKLCLSGFGDPAQGRLHNANHGAVRLHGTVTAFKHRRGYGFVLAEGVAASAPPLKHTYVALDTHAAAARNNGVPPAREEACNELHKSFFFTRSALMGGFYVTEGERVSFAVVAVPPGKGINRRVAGDSPSTRKDDGDHAALGGAETAEFLLGSPEGELEEDSSAATSDTQSQLHRIAVSLRYYDAKTGKETPISPLTLYGKIVEWDAAAGVGVIAELDTRRQYHEDAPRFPFSLESVDLALGTELRSGRYVRFCLEPATHAQGGGGEDTAAAVTPTSGAEAAADVDEDVELVAQRVIIDSSMERRKGVFGRPLVLADAAPGTMTSESRFSGVVREVKADHFGFIQDDLSGESIFFHLSNASSRVKAGDRVTYLLREVEYGKHTGKKACFDVLIDQTVTSRARDAASDCGASAGAGNAGGHHRKHAAERRSKTARDEDDLDFELL | not soluble
